# Test: yeast display, Sf9 membrane polyspecificity reagent, FACS + sequencing; frameworks hold sequencing errors
# How it was run: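 Nanobodies from a synthetic yeast display library (Saccharomyces cerevisiae BJ5465), induced 36–48 hours with galactose, were stained 1 hour at 4 °C with 10% biotinylated, detergent-solubilized Sf9 membrane reagent, enriched on streptavidin microbeads, then FACS-sorted. Anti-HA (expression) and streptavidin (reagent binding) fluorescence set low and high (top ~1%) gates. Polyreactivity labels come from the gate of origin. Genes were colony-PCR amplified, MiSeq 2 × 250 sequenced and filtered by CDR length.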
row,Sequence,polyreactivity (PSR sort gate)
1,QVQLVESGGGLVQAGGSLRLSCAASGSNFHLYAMGWYRQAPGKERELVADIDLSGGSTYYADSVKGRFTISRDNAKNTVYLQMNSLKPEDTAVYYCGADHVSSLGFDYWGQGTEVTVSS,low polyreactivity
2,QVQLVESGGGLVQAGGSLRLSCAASGSNFNPYDLGWYRQAPGKERELVAAIDWSGGSTYYADSVKGRFTISRDNAKNTVYLQMNSLKPEDTAVYYCNAESYQDTLFGADNDYDYWGQGTLVTVSS,low polyreactivity
3,QVQLVESGGGLVQAGGSLRLSCAASGSNFPWNAKGWYRQAPGKERELVAGINESGGSTYYADSVKGRFTISRDYAKNTVYLQMNSLKPEDTAVYYCAADGYPSVGDDYWGQGTQVTVSS,low polyreactivity
4,QVQLVESGGGLVQAGGSLRLSCAASGSNFRTYPIGWYRQAPGKERELVAAISSNGGSTYYADSVKGRFTISRDNAKNTVYLQMNSLKPEDTAVYYCANDQTGYWYNRYGYWGQGTQVTVSS,low polyreactivity
5,QVQLVESGGGLVQAGGSLRLSCAASGSNFRYNAIGWYRQAPGKERELVAAISWSGGSTYYADSVKGRFTISRDNAKNTVYLQMNSLKPEDTAVYYCATRYYGIVPGRRYGYWGQGTQVTVSS,low polyreactivity
6,QVQLVESGGGLVQAGGSLRLSCAASGSNFSDNAMGWYRQAPRKERELVAAITSGGSTYYADSVKGRFTISRDKAKNTVYLQMNSLKPEDSAVYYCAADYWGQGTQVTVSS,low polyreactivity
7,QVQLVESGGGLVQAGGSLRLSCAASGSNFSFYAMGWYRQAPGKERELVAAISWSGGTTYYADSVKGRFTISRDNAKNTVYLQMNSLKPEDTAVYYCAASEYDGYGGYYWGQGSQVTVSS,low polyreactivity
8,QVQLVESGGGLVQAGGSLRLSCAASGSNFTPYAMGWYRQAPGKERELVAAISGSGGSTRYADSVKARYTISRDNAKNTVYLQMNSLKPEDTAVYYCAADRYTYIWYHIYDYWGQGTQVTVSS,low polyreactivity
9,QVQLVESGGGLVQAGGSLRLSCAASGSNFVGNAMGWYRQAPGKERELFAAISSGGSTYYADSVKGRFTISRDNAKNTVYLQLNSLKPEDTAVYYCAAYYVRRYSSRPKDDYWGQGTQVTVSS,low polyreactivity
10,QVQLVESGGGLVQAGGSLRLSCAASGSNFVWYVMGWYRQAPGKDRELVAAITWSAARTYYADSVKGRFTISRDNAKNTVYLQMNSLKPEDTAVYYCAADGYPLQLYNYWGQGTQVTVSS,low polyreactivity
11,QVQLVESGGGLVQAGGSLRLSCAASGSNFYFYAMGWYRQAPGKERELVAGITSSGASTYADSVKGRFTISRDNEKNTVYLQMNSLKPEDTAVYYCAAYYPLRKGYGYWGQGTQVTVSS,high polyreactivity
12,QVQLVESGGGLVQAGGSLRLSCAASGSNIYPNAMGWYRQEPGKEREFVAVISSGGSTYYADSVKGRFTISRDNAKNTVYLQMNSMKPEDTAVYYCAADRGTVSFLYSPRAVDYWGQGTQVTVSS,low polyreactivity
13,QVQLVESGGGLVQAGGSLRLSCAASGSNLDYNAMGWSRQAPGKERELVAAISTGGRTNYADSVKGRFTISRDNAKNTVYLQMNSLKPDDTAVYYCAADTTTEITDTDYDYWGQGTQVTVSS,low polyreactivity
14,QVQLVESGGGLVQAGGSLRLSCAASGSNLLRYAMGWYRQAPGKERELVAAIRTIGASTNYADSVKGRYTISRDNAKNTVYLLMNSMKPEDTAVYYCNSYLAEVLPVGKGRLYDYWGQGTQVTVSS,low polyreactivity
15,QVQLVESGGGLVQAGGSLRLSCAASGSNLVTNSMGWYRQAPGKERELVATITSSGTSTYYADSVKGRFTISRDNAKNTVYLQMNSLKPEDTAVYYCNADDQFAYVVYLWEYHIVQYDYWGQGTQVTVSS,high polyreactivity
16,QVQLVESGGGLVQAGGSLRLSCAASGSNSGYYVMGWYRQAPGKERELVAAITWRGGSTYYADSVKGRFTISRDNAKNTVYLQMNSLKPEDTAVYYCARSRYLWYTVPPKYGYWGQGTQVTVSS,high polyreactivity
17,QVQLVESGGGLVQAGGSLRLSCAASGSNVHYMGGERQAPGKERELVAGISWSGGSTYYADSVMGRFTISRDNAKNTVYLQMNSLKPEDTAVDYCAADYYAHQDYRFDYWGQGTQVTVSS,low polyreactivity
18,QVQLVESGGGLVQAGGSLRLSCAASGSNYRFYAMGWYRQAPGKERELVATISSSGGTTYYADSVKVRITISRDNAKNNVFLQMNSLKPEDTAVYYCAKDAFGWGRVYYYRSGYWGQGTQVTVSS,high polyreactivity
19,QVQLVESGGGLVQAGGSLRLSCAASGSNYSSNAMGWYRQATGKERELVAAISRSGVTTYYADSVKGRFTISRDNAKNTVYLQMNSLKPEDSAVYYCAAQPYSRLYGRYLGFQYKYDYWGQGTQLTVSS,low polyreactivity
20,QVQLVESGGGLVQAGGSLRLSCAASGSPFPYVMVWYRQAPGKERELVAAISQRTGSTYYADSVKGRFTISRDNAKNTVYLQMNSLKPEDTAVYYCAKPGYLRPSRYDYWGQGTQVTVSS,high polyreactivity
21,QVQLVESGGGLVQAGGSLRLSCAASGSPFRGYAMGWYRLAPGKEREFVAAISRRGGTTYYADSVKARFTISRDNAKNTGYLQMNSLKPEDTAVYYCNKVYYQHYLPVDYWGQGTQVTVSS,high polyreactivity
22,QVQLVESGGGLVQAGGSLRLSCAASGSSFFSNAMGWYRQAPGKERELVASIRSGTRTNYADSVKGRFTISRDNAKNTVYLLMNILKPADTAVYYCAKKWGLDKHRIGHRRLDYWGQGTQVTVSS,low polyreactivity

row,Sequence,polyreactivity (PSR sort gate)
1,QVQLVESGGGLVQAGGSLRLSCAASGSSFHTYAMGWYRQAPGKERELVAAINRRTGGTYYADSVKGRFTISRDNAKTTVYLQMNSLKPEDTAVYYCATDWFSYRGGIFDSWGQGTQVTVSS,low polyreactivity
2,QVQLVESGGGLVQAGGSLRLSCAASGSSFNGNAMGWYRQAPGKERELVAAISRKGGSTYYADSVKGRFTISRDNAKNTVYLQMNSLKPEDTAVYYCATDLTVYYSYYWMYWGQGTQVTVSS,low polyreactivity
3,QVQLVESGGGLVQAGGSLRLSCAASGSSFPVNGIGWYRQAPGKERELVAVITDSDGSTYYADSVKGRFTISRDNAKNTVYLQMNSLKPEDTAVYYCAADDYAYSYGYWLTYDYWGQGTQVTVSS,low polyreactivity
4,QVQLVESGGGLVQAGGSLRLSCAASGSSFRVYAMGWSRQAPGKERELVASISRRGGSTYYADSVKGRFTISRDNAKTTVYIQMNSLKPEDTAVYYCNVPYYSFRDVSSYYSGQGTQVTVSS,high polyreactivity
5,QVQLVESGGGLVQAGGSLRLSCAASGSSFSRYDMGWYRQAPGKERELVATITRPGRTYYADSVKGRFTISRDNATKTVYLQMNSLKPEDTAVYYCAKDAGKTYYVDGSLEYDSWGQGTQVTVSS,low polyreactivity
6,QVQLVESGGGLVQAGGSLRLSCAASGSSFTYYTMGWYRQAPAKERELVAAISWSGGRTYYADSVTGRFTISRDNAKNTVYLQMNSLKPEDTAVYYCAAGPAPGHDSWGQGTQVTESS,high polyreactivity
7,QVQLVESGGGLVQAGGSLRLSCAASGSSFVYNVMGWYRQAPGKERELVAAIRWRGGSTYADSVKGRFTISRDNAKNTVYLQMNSLKPEDTAVYYCAAGIPRYWYAGHYDYWGQGSQVTVSS,low polyreactivity
8,QVQLVESGGGLVQAGGSLRLSCAASGSSIYSYAMGWYRQEPGKERELVAAITTSGGSTYYADSVKGRFTISRDNAKNTDYLQMNSLKPEDTAVYYCNAYFIYEGGWYYKAQYDYWGQGTQVTVSS,low polyreactivity
9,QVQLVESGGGLVQAGGSLRLSCAASGSSLWENAMGWYRQAPGKERQLVATISVSGGGTYYADSVKGRFTISRDNAKNTVYLQMTSLKPEDTAVYYCTARYGNESQGWADYWGQGTQVTVSS,low polyreactivity
10,QVQLVESGGGLVQAGGSLRLSCAASGSSLYYNAMGWYRQAPGKERELVAAISWSGGSTYYADSVKGRFTISRDNAKNTVYLQMNSLKPEDTAVSYCAADQSTVLDVGSWGQGTQVTVSS,low polyreactivity
11,QVQLVESGGGLVQAGGSLRLSCAASGSSVSYYAMGWYRQAPGKERELVAAISDNGDSTYYADSVKGRFTISRDNAKNTVYLQMNSLKPEDTAVYYCDKRYRSYGKSSKRRYYYWGQGTQVTVSS,low polyreactivity
12,QVQLVESGGGLVQAGGSLRLSCAASGSTCDTNVMGWYRQAPGKERELVAAITTSSSRTYYADSVKGRFTISRDNAKNTGYLQMNSLKPEDTAVYDCAARIHGSWSFDYWGQGTQVTVSS,low polyreactivity
13,QVQLVESGGGLVQAGGSLRLSCAASGSTCERYAMGWSRQAPGKERELVAVISYRGTSTYYADSVKGRFTISRDNAKNTVYLQMNSLKAEDTAVYDCAAEPYRTVTAYRYSLYWYNYWGQGTQVTVSS,high polyreactivity
14,QVQLVESGGGLVQAGGSLRLSCAASGSTCFHYSMGWYRQAPGKERELVAAITGTGRTTYADSVKGRFTISRDNAKTTVYLQMNSLKPEDTAVYYCAADVNYYQHRLYYWGQGTQVTVSS,low polyreactivity
15,QVQLVESGGGLVQAGGSLRLSCAASGSTCTGYTMGWYRQAPGNERELVAAITYRGGSTYYADSVKGRFTISRDNAKNTVYLQKNSLKPEETAVYYCAAVPEYYEYSPYDYWGQGTQVTVSS,low polyreactivity
16,QVQLVESGGGLVQAGGSLRLSCAASGSTDRYYVMGWYRQAPGKERDLVAGISYRGGTTYYADSVKGRFTISRDNAKNTVYLQMNRLKPEDTAVYYCNAETAAAQASYDRLYVLLDYWGQGTQVTVSS,low polyreactivity
17,QVQLVESGGGLVQAGGSLRLSCAASGSTDSNAMGWYRQAPGKERELVAAISGTGSRTYYADSVKGRFTISRDNAKNTVYLQMNSLKPEDTAVYYCAAYSGYYRPRYNYWGQGTQVTVSS,high polyreactivity
18,QVQLVESGGGLVQAGGSLRLSCAASGSTFAANAMGWYRQAPGKERELVAAITSSGGSTFYADSVKGRFTISRDNAKNTVYLQMNSLKPEDTAVYYCNKDIERYVRIYDSWGQGTQVTVSS,low polyreactivity
19,QVQLVESGGGLVQAGGSLRLSCAASGSTFAAYAMGWYRQAPGKERELVAAISATGGSTYYADSVKGRFTISRDNAKNTVYLQMNRLKPEDTAVYYCAADYPSWYGYRYYYWGQGTQVTVSS,high polyreactivity
20,QVQLVESGGGLVQAGGSLRLSCAASGSTFAEYAMGWYREAPGKERELVADITWSGGSTYYADSVKGRFTISRDNAKNTVYLQMNSLKPDDTAVYYCYFWPVFYDFYLYGYWGQGTQVTVSS,low polyreactivity
21,QVQLVESGGGLVQAGGSLRLSCAASGSTFAFNAMGWYRQAPGKERELVAAIYSDGSTDYADSVKGRFSISRDNAKNTVYLQMNSLKPEDPAVYYCADDWGWRYVLPVGWFRYGYWGQGTQVTVSS,low polyreactivity
